± gives the standard deviation.

This data set is described as follows: protein stability index of a GFP-peptide fusion (GPS, HEK-293T) (PSI 1-6); higher = more stable. The settings on record: c terminus: a fixed tail appended.
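Note: 24-mer peptide tiles fused after GFP, lentivirally expressed, FACS-sorted into six equal bins by GFP/DsRed ratio, decoded by Illumina sequencing, PSI is the read-weighted mean bin number.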

With ELHPESGEEAVTLVEDMQRELGRL [ZNF263], the protein stability index runs as follows: (treatment: DMSO) 4.88 ± 0.41; (treatment: MLN4924 1 uM, 8 h) 5.13 ± 0.26.

On to TIAPTLIADLFVADQRSRMLSIFY [SPNS1], for which the protein stability index runs as follows: (treatment: DMSO) 2.87 ± 0.66; (treatment: MLN4924 1 uM, 8 h) 2.66 ± 0.6.

As to SSQLAQMQCLISNVEAQLSEIRCD [KRT36], the protein stability index is 3 ± 0.075 (treatment: DMSO) and 3.1 ± 0.31 (treatment: MLN4924 1 uM, 8 h).

For TAKDFIVGKSLTILGRTFFIYDCD [EFHC1], the protein stability index is 2.93 ± 0.49 (treatment: DMSO) and 2.28 ± 0.34 (treatment: MLN4924 1 uM, 8 h).

As for VNLFLHFTVNPKPRVEYIDRPRCC [BTBD1], the protein stability index reads like this: (treatment: DMSO) 3.43 ± 0.18; (treatment: MLN4924 1 uM, 8 h) 3.12 ± 0.28.

Consider EAGAMTFHYIIEQGVCYLVLCEAA [SEC22B], for which the protein stability index runs as follows: (treatment: DMSO) 3.08 ± 0.23; (treatment: MLN4924 1 uM, 8 h) 3.01 ± 0.33.

Turning to SHGANVNHTTVTNSTPLRAACFDG [FEM1B], the protein stability index by setting is: (treatment: DMSO) 4.02 ± 0.14; (treatment: MLN4924 1 uM, 8 h) 4.25 ± 0.086.

For the sequence PGKLFIGGLNRETNEKMLKAVFGK [RBMY1A1], the protein stability index reads like this: (treatment: DMSO) 2.69 ± 0.12; (treatment: MLN4924 1 uM, 8 h) 2.86 ± 0.14.

With GLSAEDGVWAVIISHQQCWASTSP [TRIM15], the protein stability index stood at 2.88 ± 0.51 (treatment: DMSO) and 2.39 ± 0.73 (treatment: MLN4924 1 uM, 8 h).

Turning to ERERQPCGDGNTETHRAPDLVQWT [SOAT2], the protein stability index came to 4.92 ± 0.06 (treatment: DMSO) and 4.65 ± 0.24 (treatment: MLN4924 1 uM, 8 h).

ALRKIIKTLAVKNEEIQSFIYSLK [FSD1]: the protein stability index runs as follows: (treatment: DMSO) 2.87 ± 0.45; (treatment: MLN4924 1 uM, 8 h) 2.89 ± 0.42.

LEERRVKEVVKKHSQFIGYPITLY [HSP90AB1] showed a protein stability index (treatment: DMSO) of 2.48 ± 0.068.

TYKCTKQLLSERFGRGSRTVDLEL [ARFIP2]: the protein stability index was 2.43 ± 0.32 (treatment: DMSO) and 2.33 ± 0.18 (treatment: MLN4924 1 uM, 8 h).

As to RSHLIGHQRTHSEEETYKCLECGK [ZNF449], the protein stability index (treatment: DMSO) was determined as 4.26 ± 0.16 and the protein stability index (treatment: MLN4924 1 uM, 8 h) amounted to 4.39 ± 0.26.

Take MTMTTMPESLNSPVSGKAVFMEFG [DLX1]: the protein stability index runs as follows: (treatment: DMSO) 2.42 ± 0.16; (treatment: MLN4924 1 uM, 8 h) 2.57 ± 0.21.

For GMSTIRPNPGFSMLDFLSERPWIK [APMAP], the protein stability index came out at 2.62 ± 0.34 (treatment: DMSO) and 2.76 ± 0.24 (treatment: MLN4924 1 uM, 8 h).

As for VTLIVDNTRFVVDPSIFTAQPNTM [BTBD10], the protein stability index (treatment: DMSO) was found to be 2.84 ± 0.51 and the protein stability index (treatment: MLN4924 1 uM, 8 h) stood at 3.2 ± 0.74.

GVIRMWADEGSRNSRFQMLFTSFQ [NETO1]: the protein stability index reads like this: (treatment: DMSO) 2.34 ± 0.4; (treatment: MLN4924 1 uM, 8 h) 2.27 ± 0.28.

Where the note is “treatment: DMSO”, RVEDAFYTLVREIRQYRLKKISKE [KRAS] returned a protein stability index of 2.3 ± 0.17.

In the case of CLIRSLLRREPSERLTAPEILLHP [TRIB1], the protein stability index is, setting by setting: (treatment: DMSO) 2.48 ± 0.21; (treatment: MLN4924 1 uM, 8 h) 2.2 ± 0.21.

For MAVALGCAIQASLNQGSVFQEYDT [ZNF449], the protein stability index runs as follows: (treatment: DMSO) 3.91 ± 0.54; (treatment: MLN4924 1 uM, 8 h) 2.88 ± 1.2.

As for EVEEADGNKQWWFGGGCDLTPTYL [CPOX], the protein stability index runs as follows: (treatment: DMSO) 3.43 ± 0.49; (treatment: MLN4924 1 uM, 8 h) 3.36 ± 0.39.

AAKFPSGSQRARVVNTDHGSPEQL [SDE2] showed a protein stability index (treatment: DMSO) of 4.56 ± 0.44 and a protein stability index (treatment: MLN4924 1 uM, 8 h) of 4.81 ± 0.17.

MGTRRKHLGCAVYQDMIYAVGGRD [KLHL20] had a protein stability index (treatment: DMSO) of 2.33 ± 0.27 and a protein stability index (treatment: MLN4924 1 uM, 8 h) of 2.29 ± 0.56.

Take PLELMRTKLQAQHVSYRELGACVR [SLC25A39]: the protein stability index worked out at 2.67 ± 0.24 (treatment: DMSO) and 2.92 ± 0.16 (treatment: MLN4924 1 uM, 8 h).

For SRPSAPFTEASMMMSLTKLADKEL [ESR2], the protein stability index is, setting by setting: (treatment: DMSO) 3.97 ± 0.4; (treatment: MLN4924 1 uM, 8 h) 3.97 ± 0.068.

For the sequence LEQFLSILPKELQGWVREHCPESG [ZSCAN9], the protein stability index runs as follows: (treatment: DMSO) 2.5 ± 0.15; (treatment: MLN4924 1 uM, 8 h) 2.71 ± 0.29.

Regarding VERDNMEEDNVEESEEEGPWEPPV [HDAC6], the protein stability index runs as follows: (treatment: DMSO) 5.58 ± 0.19; (treatment: MLN4924 1 uM, 8 h) 5.25 ± 0.21.

On to GVKFVGLFIILQVGLNTIADLWYL [POMT2], for which the protein stability index was 3.52 ± 0.1 (treatment: DMSO) and 2.9 ± 1.2 (treatment: MLN4924 1 uM, 8 h).

For the sequence IKALFRKGKVLAQQGEYSEAIPIL [FKBP8], the protein stability index was determined as 2.54 ± 0.38 (treatment: DMSO) and 2.36 ± 0.42 (treatment: MLN4924 1 uM, 8 h).

Regarding PEVVQHEEFILLSQGEVEKLIKCD [KLHL12], the protein stability index runs as follows: (treatment: DMSO) 3.99 ± 0.4; (treatment: MLN4924 1 uM, 8 h) 3.86 ± 0.75.

MSIVIPLGVDTAETSYLEMAAGSE [KMT2E] displayed a protein stability index (treatment: DMSO) of 2.76 ± 0.51 and a protein stability index (treatment: MLN4924 1 uM, 8 h) of 2.74 ± 0.39.

Sequence KVIVVMRSLFIDRTIVKGYNENVY [MED27] yielded a protein stability index (treatment: DMSO) of 2.77 ± 0.39 and a protein stability index (treatment: MLN4924 1 uM, 8 h) of 3.29 ± 0.33.

In the case of IRNEQFAIRRFQSMPVRLLGHSPV [CDC25B], the protein stability index (treatment: DMSO) turned out to be 2.71 ± 0.4 and the protein stability index (treatment: MLN4924 1 uM, 8 h) amounted to 2.71 ± 0.21.

STVKDCATIFALSTMTSSVQIYNL [ATL3] returned a protein stability index (treatment: DMSO) of 3.08 ± 0.68 and a protein stability index (treatment: MLN4924 1 uM, 8 h) of 3.25 ± 0.59.

Consider YKGLFEVNPWKREVKLLLSSETPI [APMAP], for which the protein stability index is, setting by setting: (treatment: DMSO) 2.71 ± 0.3; (treatment: MLN4924 1 uM, 8 h) 2.14 ± 0.18.

Turning to LDNNASASGNATQTESGSEEVSST [C10orf62], the protein stability index came to 5.7 ± 0.2 (treatment: DMSO) and 5.64 ± 0.15 (treatment: MLN4924 1 uM, 8 h).

The values are drawn from the supplement of paper PMC10567573.
